Data as given in US20230407373A1 (priority 2020, published 2023).
Read-outs that look alike come from different tables or passages of the source.

Tests used:
Format in all cases: binding
[1] = test system: SARS-CoV-2 gRNA and sgRNAs; conditions: for target (unweighted spectral count in RNP capture): Probe II capture, LC-MS/MS LFQ; for background (unweighted spectral count in control): no-probe control pull-down, used as background for Probe II
[2] = test system: SARS-CoV-2 gRNA; conditions: […]; LC-MS/MS; Probe I sample (first 199 lines of Table 2)
[3] = test system: HCoV-OC43 gRNA and sgRNA; conditions: for target (unweighted spectral count, OC43 Probe II capture) / target (spectral count) / background (spectral count): 36 hpi; for target (unweighted spectral count, OC43 Probe II capture): type n_36_v, FDR<10%; for target (unweighted spectral count, OC43 Probe II capture) / target (unweighted spectral count): tested against no-probe control; for target (unweighted spectral count): OC43 Probe II, infected cells; for target (unweighted spectral count, OC43 Probe II) / background (unweighted spectral count, no-probe control): type n_48_v, 48 hpi; for target (unweighted spectral count, OC43 Probe II): OC43 Probe II capture on infected cells; for background (unweighted spectral count, no-probe control): no-probe control on infected cells; for target (spectral count) / background (spectral count): type s_36_m, Probe II; for target (spectral count): HCoV-OC43-infected HCT-8 cells; for background (spectral count): uninfected-probe control
[4] = test system: gRNA of HCoV-OC43; conditions: for target (spectral count, OC43 Probe I RNP capture) / background (spectral count, no-probe control): type n_48_v: 48 hours post-infection; for target (spectral count, OC43 Probe I RNP capture): infected cells, unweighted spectral count; for background (spectral count, no-probe control): no-probe control on infected cells; for target (spectral count) / background (spectral count): type g_36_m, 36 hpi, Probe I; for target (spectral count): HCoV-OC43-infected HCT-8 cells; for background (spectral count): uninfected-probe control

Molecule | target (unweighted spectral count in RNP capture) [1] | background (unweighted spectral count in control) [1] | target (unweighted spectral count of the protein in the RNP capture) [2] | target (unweighted spectral count, OC43 Probe II capture) [3] | target (unweighted spectral count) ([3]; 24 hpi (type n_24_v)) | target (unweighted spectral count, OC43 Probe II) [3] | background (unweighted spectral count, no-probe control) [3] | target (spectral count) [3] | background (spectral count) [3] | target (spectral count, OC43 Probe I RNP capture) [4] | background (spectral count, no-probe control) [4] | target (unweighted spectral count) ([3]; 12 hpi (type n_12_v)) | target (spectral count) [4] | background (spectral count) [4]
TIAL1: host protein, UniProt Q01085 (protein, UniProt Q01085 1-375, looked up) Nucleolysin TIAR: MMEDDGQPRTLYVGNLSRDVTEVLILQLFSQIGPCKSCKMITEHTSNDPYCFVEFYEHRDAAAALAAMNGRKILGKEVKVNWATTPSSQKKDTSNHFHVFVGDLSPEITTEDIKSAFAPFGKISDARVVKDMATGKSKGYGFVSFYNKLDAENAIVHMGGQWLGGRQIRTNWATRKPPAPKSTQENNTKQLRFEDVVNQSSPKNCTVYCGGIASGLTDQLMRQTFSPFGQIMEIRVFPEKGYSFVRFSTHESAAHAIVSVNGTTIEGHVVKCYWGKESPDMTKNFQQVDYSQWGQWSQVYGNPQQYGQYMANGWQVPPYGVYGQPWNQQGFGVDQSPSAAWMGGFGAQPPQGQAPPPVIPPPNQAGYGMASYQTQ | 25 | 1 | 10 | 9 | 7 | 11 | 1 | 9 | 1 | 11 | 1 |  |  | 
HNRNPH1 (protein, UniProt P31943 1-449, looked up) Heterogeneous nuclear …: MMLGTEGGEGFVVKVRGLPWSCSADEVQRFFSDCKIQNGAQGIRFIYTREGRPSGEAFVELESEDEVKLALKKDRETMGHRYVEVFKSNNVEMDWVLKHTGPNSPDTANDGFVRLRGLPFGCSKEEIVQFFSGLEIVPNGITLPVDFQGRSTGEAFVQFASQEIAEKALKKHKERIGHRYIEIFKSSRAEVRTHYDPPRKLMAMQRPGPYDRPGAGRGYNSIGRGAGFERMRRGAYGGGYGGYDDYNGYNDGYGFGSDRFGRDLNYCFSGMSDHRYGDGGSTFQSTTGHCVHMRGLPYRATENDIYNFFSPLNPVRVHIEIGPDGRVTGEADVEFATHEDAVAAMSKDKANMQHRYVELFLNSTAGASGGAYEHRYVELFLNSTAGASGGAYGSQMMGGMGLSNQSSYGGPASQQLSGGYGGGYGGQSSMSGYDQVLQENSSDFQSNIA | 61 | 1 | 78 | 36 |  | 53 | 6 |  |  | 49 | 6 | 15 |  | 
HNRNPA0 (protein, UniProt Q13151 1-305, looked up) Heterogeneous nuclear …: MENSQLCKLFIGGLNVQTSESGLRGHFEAFGTLTDCVVVVNPQTKRSRCFGFVTYSNVEEADAAMAASPHAVDGNTVELKRAVSREDSARPGAHAKVKKLFVGGLKGDVAEGDLIEHFSQFGTVEKAEIIADKQSGKKRGFGFVYFQNHDAADKAAVVKFHPIQGHRVEVKKAVPKEDIYSGGGGGGSRSSRGGRGGRGRGGGRDQNGLSKGGGGGYNSYGGYGGGGGGGYNAYGGGGGGSSYGGSDYGNGFGGFGSYSQHQSSYGPMKSGGGGGGGGSSWGGRSNSGPYRGGYGGGGGYGGSSF | 9 | 1 | 12 | 12 |  | 13 | 2 |  |  | 12 | 2 |  |  | 
RBM47: host protein, UniProt A0AV96 (protein, UniProt A0AV96 1-593, looked up) RNA-binding protein 47: MTAEDSTAAMSSDSAAGSSAKVPEGVAGAPNEAALLALMERTGYSMVQENGQRKYGGPPPGWEGPHPQRGCEVFVGKIPRDVYEDELVPVFEAVGRIYELRLMMDFDGKNRGYAFVMYCHKHEAKRAVRELNNYEIRPGRLLGVCCSVDNCRLFIGGIPKMKKREEILEEIAKVTEGVLDVIVYASAADKMKNRGFAFVEYESHRAAAMARRKLMPGRIQLWGHQIAVDWAEPEIDVDEDVMETVKILYVRNLMIETTEDTIKKSFGQFNPGCVERVKKIRDYAFVHFTSREDAVHAMNNLNGTELEGSCLEVTLAKPVDKEQYSRYQKAARGGGAAEAAQQPSYVYSCDPYTLAYYGYPYNALIGPNRDYFVKAGSIRGRGRGAAGNRAPGPRGSYLGGYSAGRGIYSRYHEGKGKQQEKGYELVPNLEIPTVNPVAIKPGTVAIPAIGAQYSMFPAAPAPKMIEDGKIHTVEHMISPIAVQPDPASAAAAAAAAAAAAAAVIPTVSTPPPFQGRPITPVYTVAPNVQRIPTAGIYGASYVPFAAPATATIATLQKNAAAAAAMYGGYAGYIPQAFPAAAIQVPIPDVYQTY |  | 1 | 12 | 31 |  | 27 | 2 | 31 | 6 | 26 | 2 | 10 | 28 | 5
CIRBP: host protein, UniProt Q14011 (protein, UniProt Q14011 1-172, looked up) Cold-inducible RNA-binding …: MASDEGKLFVGGLSFDTNEQSLEQVFSKYGQISEVVVVKDRETQRSRGFGFVTFENIDDAKDAMMAMNGKSVDGRQIRVDQAGKSSDNRSRGYRGGSAGGRGFFRGGRGRGRGFSRGGGDRGYGGNRFESRSGGYGGSRDYYSSRSQSGGYSDRSSGGSYRDSYDSYATHNE | 15 | 1 | 12 |  | 7 | 12 | 1 | 13 | 2 | 9 | 1 |  |  | 
TRA2B: host protein, UniProt P62995 (protein, UniProt P62995 2-288, looked up) Transformer-2 protein homolog …: SDSGEQNYGERESRSASRSGSAHGSGKSARHTPARSRSKEDSRRSRSKSRSRSESRSRSRRSSRRHYTRSRSRSRSHRRSRSRSYSRDYRRRHSHSHSPMSTRRRHVGNRANPDPNCCLGVFGLSLYTTERDLREVFSKYGPIADVSIVYDQQSRRSRGFAFVYFENVDDAKEAKERANGMELDGRRIRVDFSITKRPHTPTPGIYMGRPTYGSSRRRDYYDRGYDRGYDDRDYYSRSYRGGGGGGGGWRAAQDRDQIYRRRSPSPYYSRGGYRSRSRSRSYSPRRY | 8 | 1 | 13 | 15 |  | 12 | 2 | 15 | 2 | 10 | 2 | 5 |  | 
DAZAP1: host protein, UniProt Q96EP5 (protein, UniProt Q96EP5 1-407, looked up) DAZ-associated protein 1: MNNSGADEIGKLFVGGLDWSTTQETLRSYFSQYGEVVDCVIMKDKTTNQSRGFGFVKFKDPNCVGTVLASRPHTLDGRNIDPKPCTPRGMQPERTRPKEGWQKGPRSDNSKSNKIFVGGIPHNCGETELREYFKKFGVVTEVVMIYDAEKQRPRGFGFITFEDEQSVDQAVNMHFHDIMGKKVEVKRAEPRDSKSQAPGQPGASQWGSRVVPNAANGWAGQPPPTWQQGYGPQGMWVPAGQAIGGYGPPPAGRGAPPPPPPFTSYIVSTPPGGFPPPQGFPQGYGAPPQFSFGYGPPPPPPDQFAPPGVPPPPATPGAAPLAFPPPPSQAAPDMSKPPTAQPDFPYGQYAGYGQDLSGFGQGFSDPSQQPPSYGGPSVPGSGGPPAGGSGFGRGQNHNVQGFHPYRR | 11 | 1 | 13 | 13 | 7 | 22 | 1 | 13 | 2 | 18 | 1 |  | 11 | 1
